Test results reported in paper PMC3614804.
pKd: −log10 of the molar value.

Key:
[1] = target: extracellular part of FcɛRIα with the transmembrane domain of Her2 at its C-terminus, displayed on the stable CHO cell line FI5F10 (UniProt P12319); assay: flow cytometry on cells; 7.5 nM IgE alone (positive control), or preincubated with 750 nM QME5 or with equimolar Omalizumab, added to FI5F10 cells; after washing 5 μg/mL FITC_GAH IgE detects membrane-binding IgE
FcεRIα (Homo sapiens) = FcεRIα (Homo sapiens) (UniProt P12319); assay: given as Ka; settings: cited from earlier work

Substance | percentage of positive cells (7.5 nM IgE, positive control) [1] [%] | pKd (FcεRIα (Homo sapiens))
human IgE (ligand) | 69.1 | –
IgE Cε3 Cε3 (from UniProt P01854) | – | 6.70
